# Molecular target: T1, HLA-A*02:01 (human)
# T1 construct: MHC monomers first loaded with a UV-sensitive peptide (not identified) that is cleaved and exchanged for the test peptide; captured on streptavidin-coated plates and detected with anti-β2m; also called peptide-receptive MHC molecules; MHC class I
# Experiment: UV-ligand exchange, anti-b2m ELISA; peptide exchange yield grade
# Source text: Candidate peptides for T cell based therapies according to the present invention were further tested for their MHC binding capacity (affinity). The individual peptide-MHC complexes were produced by UV-ligand exchange, where a UV-sensitive peptide is cleaved upon UV-irradiation and exchanged with the peptide of interest as analyzed. Only peptide candidates that can effectively bind and stabilize the peptide-receptive MHC molecules prevent dissociation of the MHC complexes. To determine the yield of the exchange reaction, an ELISA was performed based on the detection of the light chain (β2m) of stabilized MHC complexes. The assay was performed as generally described in Rodenko et al. (Rodenko et al., 2006).
# 96 well MAXISorp plates (NUNC) were coated over night with 2 μg/ml streptavidin in PBS at room temperature, washed 4× and blocked for 1 h at 37° C. in 2% BSA containing blocking buffer. Refolded HLA-A*02:01/MLA-001 monomers served as standards, covering the range of 15-500 ng/ml. Peptide-MHC monomers of the UV-exchange reaction were diluted 100-fold in blocking buffer. Samples were incubated for 1 h at 37° C., washed four times, incubated with 2 μg/ml HRP conjugated anti-β2m for 1h at 37° C., washed again and detected with TMB solution that is stopped with […]. Absorption was measured at 450 nm. Candidate peptides that show a high exchange yield (preferably higher than 50%, most preferred higher than 75%) are generally preferred for a generation and production of antibodies or fragments thereof, and/or T cell receptors or fragments thereof, as they show sufficient avidity to the MHC molecules and prevent dissociation of the MHC complexes.
row,Binder,peptide exchange yield
1,KLAPEDLADLTAL,≥ 75%
2,KLDASLPAL,≥ 75%
3,KLLDGSQRV,50 to 75%
4,NLLDHSSMFL,≥ 75%
5,YLWWVNDQSL,≥ 75%
6,NLLADVSTV,50 to 75%

# Reference: US20220111022A1 (IMMATICS BIOTECHNOLOGIES, published 2022)
